The target in assay [1] is T1, cMET-Tn peptide PTKSFISGGSTITGVGKNLN, glycosylated with GalNAc on the serine and threonine residues (O-linked GalNAc on the serine at position 10 and the threonine at position 11; N-terminal biotin in the form described for Biacore and Octet).
T1 construct: Synthetic 20-residue glycopeptide of cMET; GalNAc sites not given; also called Tn-glycosylated cMET peptide; cMET glycopeptide
T1 peptide: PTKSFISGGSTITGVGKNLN
Kind of assay: BLI (Octet), peptide on biosensor, apparent affinity. For orientation: Biolayer interferometry detects binding as a change in optical thickness at a sensor tip.

Assay [2] deals with T1, cMET-Tn peptide PTKSFISGGSTITGVGKNLN, …. Kind of assay: SPR (Biacore), antibody immobilised, peptide as analyte. From the text: Antibody affinity assays can be carried out using surface plasmon resonance (e.g., using a Biacore system (Cytiva)). In a surface plasmon resonance assay, one or more antibodies can be immobilized onto a biosensor and presented with an analyte (e.g., the cMET-Tn peptide Biotin-[…] (the amino acid portion of which is SEQ ID NO: 285; bold and underlined residues indicate GalNAc glycosylation sites) or a negative control analyte such as an unglycosylated cMET peptide (Biotin-[…] (the amino acid portion of which is SEQ ID NO:286)). The antibodies are contacted with different concentrations of the analyte, for example concentrations of 2.5 nM, 7.4 nM, 22 nM, 66 nM and 200 nM. Affininty is measured using multi-cycle kinetics in triplicate for each analyte concentration, with 1 min association and 5 min dissociation. […] The affinity is determined by fitting the binding curve to a specific model: kinetic fit (1:1 model) or if applicable heterogenous ligand binding model. The error (>95% confidence) was calculated by how close the generated curve matches the model.
On the technique in general: SPR reads the build-up and loss of mass on a sensor chip optically.

The target in a further assay is T2, MUC1-Tn.
T2 construct: Specificity control in the Biacore and Octet assays
Kind of assay: BLI (Octet), peptide on biosensor, apparent affinity.

B1: 39A3 (antibody, V domains shown)
VH: QSLEEYGGDLVKPGASLTLTCTASGLDFSGIYWACWVRQAPGKGLEWIACMDNRVTYATWAKGRFTSSKTSSTTVTLQMTSLTAADTATYFCARGGYGGRGLVFNLWGQGTLVTVSS
VL: DPVLTQTPPSVSAAVGGTVTIKCQSSQSVYNNNELSWYQQKPGQPPKLLIYDASTLASGVPSRFKGSGSGTQFTLTISGVQCDDAATYYCQGIYYIGDWYSAFGGGTEVVVKG
notes: Rabbit monoclonal antibody cloned from B cells
In the case of B1, the Kd in assay [1] came out at 52 nM.

B2: 15C4.1D8.1G2 (antibody, V domains shown)
VH: QVQLQQSDAELVKPGASVKISCKASGYTFTDHAIHWVKQKPEQGLEWIGYFSPGNGDIKYNEKFKGKATLTADKSSSTAYMQLNSLTSEDSAVYFCKRSLPGPMDCWGQGTSVTVSS
VL: NIVMTQSPKSMSMSVGERVTLSCKASENVGIYVSWYQQKPEQSPKLLIYGPSNRYTGVPDRFTGSGSATDFTLTISSVQAEDLADYHCGQSYSYPFTFGSGTKLEIK
notes: Mouse monoclonal antibody from a hybridoma (Balb/c mice immunised with the KLH-conjugated Tn-cMET glycopeptide)
In the case of B2, the Kd is 7 nM in assay [2] and 2.83 nM in assay [1].

B3: 8H3.2B9.2C7 (antibody, V domains shown)
VH: QVQLQQSDAELVKPGASVKISCKASGYTFTDHAIHWVKQRPEQGLEWIGYFSPGNGDIKYNEKFKDKATLTADKSSSTAYMQLNSLTSEDSAVYFCKRSLPGDFDYWGQGTTLTVSS
VL: DVQITQSPSYLAASPGETITINCRASKSVSEYLAWYQEKPGKTNKLLIYSGSTLHSGIPSRFSGSGSGTDFTLTITSLAPEDFAMYFCQQHNEYPFTFGAGTKLELK
notes: Mouse monoclonal antibody from a hybridoma; also called GO-8H3
Take B3: the values for the Kd in assay [2] and in assay [1] were 6.26 nM and 7 nM, respectively.

B4: 16E12.1D9.1B11 (antibody, V domains shown)
VH: QVQLQQSDAELVKPGASVKISCKASGYTFTDHAIHWVKQKPEQGLEWIGYFSPGNDDVRYSEKFKGKATLTADKSSSTAYMQLNSLTSEDSAVYFCKRSLPGDFDYWGQGTTLTVSS
VL: DVQISQSPSYLAASPGETITINCRASKSINNYLVWYQEKPGKTIKPLIYSGSTLQTGTPSRFSGSGSGTDFSLTISSLEPEDFAMYYCQQHNEYPFTFGAGTKLELK
notes: Mouse monoclonal antibody from a hybridoma
Regarding B4, the Kd stood at 1.43 nM in assay [2], 2000 nM with MUC1-Tn and 19.2 nM in assay [1].

B5: 14E9 (antibody, V domains shown)
VH: QEQLVESGGGLVEPGASLTLTCKASGIDFSSYWICWVRQAPGKGLEWVGCIYTGSGGNTYYATWAKGRFTVSETSSTTVTLRMTSLTAADTATYFCARMGYSAGYIGATYITVGAFNLWGQGTLVTVSS
VL: DVVMTQTPASVGAAVGGTVTIKCQASQSISNWLAWYQQKPGQPPKLLIYSASYLESGVPSRFSGSGSGTEFTLTISDLECADAATYYCQCTYGSSGDSGSWDFGGGTEVVVKG
notes: Rabbit monoclonal antibody cloned from B cells of immunised New Zealand White rabbits
Regarding B5, the Kd in assay [1] was 1.5 nM.

The values are drawn from patent US20250136701A1 (GO THERAPEUTICS, published 2025).
